# Legend:
# dvl2_human DVL2 = dvl2_human DVL2 (UniProt O14641)
# dvl3_human DVL3 = dvl3_human DVL3 (UniProt Q92997)
# Sequence of UniProt Q92997 (Q92997 whole entry): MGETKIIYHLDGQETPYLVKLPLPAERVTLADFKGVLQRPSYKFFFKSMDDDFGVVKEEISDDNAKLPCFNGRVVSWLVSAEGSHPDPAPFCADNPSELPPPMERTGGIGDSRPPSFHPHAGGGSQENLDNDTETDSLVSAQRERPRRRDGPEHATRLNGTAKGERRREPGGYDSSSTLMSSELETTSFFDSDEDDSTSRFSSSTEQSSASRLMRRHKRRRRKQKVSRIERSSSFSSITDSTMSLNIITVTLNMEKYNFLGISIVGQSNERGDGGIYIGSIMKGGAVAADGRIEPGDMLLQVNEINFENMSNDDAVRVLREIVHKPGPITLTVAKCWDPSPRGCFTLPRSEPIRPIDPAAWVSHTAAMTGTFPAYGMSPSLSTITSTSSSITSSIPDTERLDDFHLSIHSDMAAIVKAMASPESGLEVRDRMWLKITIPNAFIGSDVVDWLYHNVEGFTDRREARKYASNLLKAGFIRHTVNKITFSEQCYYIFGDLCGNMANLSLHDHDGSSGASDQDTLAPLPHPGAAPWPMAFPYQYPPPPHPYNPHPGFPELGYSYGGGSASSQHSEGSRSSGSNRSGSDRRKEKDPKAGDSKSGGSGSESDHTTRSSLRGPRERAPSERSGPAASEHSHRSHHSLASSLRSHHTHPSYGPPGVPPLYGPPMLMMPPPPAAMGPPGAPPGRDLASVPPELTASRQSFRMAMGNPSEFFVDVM
# Sequence of DVL1, O14640-2 (O14640 other isoform, or with tags, fused parts or gaps): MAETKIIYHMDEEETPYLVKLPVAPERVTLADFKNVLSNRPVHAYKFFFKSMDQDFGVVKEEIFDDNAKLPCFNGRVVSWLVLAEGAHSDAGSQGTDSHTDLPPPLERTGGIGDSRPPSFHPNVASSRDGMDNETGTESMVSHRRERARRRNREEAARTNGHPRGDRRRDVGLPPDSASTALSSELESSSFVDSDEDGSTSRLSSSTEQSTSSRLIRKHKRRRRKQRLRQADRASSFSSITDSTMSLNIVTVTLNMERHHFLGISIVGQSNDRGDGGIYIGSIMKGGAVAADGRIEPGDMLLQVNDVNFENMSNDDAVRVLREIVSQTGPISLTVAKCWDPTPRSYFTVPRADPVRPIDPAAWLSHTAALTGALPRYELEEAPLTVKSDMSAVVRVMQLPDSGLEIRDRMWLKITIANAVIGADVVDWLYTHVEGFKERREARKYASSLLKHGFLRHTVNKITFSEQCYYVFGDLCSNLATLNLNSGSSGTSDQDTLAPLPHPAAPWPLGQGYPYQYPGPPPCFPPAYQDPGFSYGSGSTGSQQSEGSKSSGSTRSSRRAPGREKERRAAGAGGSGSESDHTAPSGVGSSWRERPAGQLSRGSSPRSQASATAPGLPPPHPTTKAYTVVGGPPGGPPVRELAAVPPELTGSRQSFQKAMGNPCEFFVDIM
# Sequence of UniProt O14641 (O14641 whole entry): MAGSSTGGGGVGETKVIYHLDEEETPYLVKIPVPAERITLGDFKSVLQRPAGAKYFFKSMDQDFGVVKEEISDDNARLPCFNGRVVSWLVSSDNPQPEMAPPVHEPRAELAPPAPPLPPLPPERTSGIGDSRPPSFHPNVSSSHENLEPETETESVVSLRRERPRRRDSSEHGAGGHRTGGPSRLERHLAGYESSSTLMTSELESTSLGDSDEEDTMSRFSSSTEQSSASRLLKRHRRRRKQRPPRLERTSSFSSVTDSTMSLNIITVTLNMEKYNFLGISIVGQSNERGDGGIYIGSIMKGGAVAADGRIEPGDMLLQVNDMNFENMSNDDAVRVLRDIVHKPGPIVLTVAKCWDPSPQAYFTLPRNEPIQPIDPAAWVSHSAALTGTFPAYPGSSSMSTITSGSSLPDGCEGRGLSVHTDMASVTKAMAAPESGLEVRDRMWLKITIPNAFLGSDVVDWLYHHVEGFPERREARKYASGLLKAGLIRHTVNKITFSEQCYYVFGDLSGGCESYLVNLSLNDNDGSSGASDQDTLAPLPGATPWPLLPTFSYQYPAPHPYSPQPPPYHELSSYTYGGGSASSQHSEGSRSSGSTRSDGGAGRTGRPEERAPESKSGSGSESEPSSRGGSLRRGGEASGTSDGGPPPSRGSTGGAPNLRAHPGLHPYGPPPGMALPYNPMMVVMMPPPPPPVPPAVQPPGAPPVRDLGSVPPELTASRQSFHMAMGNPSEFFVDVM
Substance,"effect of a mutation on the interaction (DVL1, O14640-2)",effect of a mutation on the interaction (dvl2_human DVL2),effect of a mutation on the interaction (dvl3_human DVL3)
"Leucine-rich repeat serine/threonine-protein kinase 2 (Homo sapiens), Q5S007 R1441H",increasing interaction,,
"Leucine-rich repeat serine/threonine-protein kinase 2 (Homo sapiens), Q5S007 R1441G",increasing interaction,,
"Leucine-rich repeat serine/threonine-protein kinase 2 (Homo sapiens), Q5S007 R1728H",increasing interaction,,
"Leucine-rich repeat serine/threonine-protein kinase 2 (Homo sapiens), Q5S007 R1728L",increasing interaction,,
"Leucine-rich repeat serine/threonine-protein kinase 2 (Homo sapiens), Q5S007 Y1699C",decreasing interaction,decreasing interaction,decreasing interaction

# Results, then the substance that gave them:
"effect of a mutation on the interaction (DVL1, O14640-2)",effect of a mutation on the interaction (dvl2_human DVL2),effect of a mutation on the interaction (dvl3_human DVL3),Substance
increasing interaction,,,"Leucine-rich repeat serine/threonine-protein kinase 2 (Homo sapiens), Q5S007 R1441C"
,decreasing interaction,,"Leucine-rich repeat serine/threonine-protein kinase 2 (Homo sapiens), Q5S007 R1514Q"
